T1: human CTLA4 (human, UniProt P16410 36-161, limits assumed)
T1 sequence (looked up): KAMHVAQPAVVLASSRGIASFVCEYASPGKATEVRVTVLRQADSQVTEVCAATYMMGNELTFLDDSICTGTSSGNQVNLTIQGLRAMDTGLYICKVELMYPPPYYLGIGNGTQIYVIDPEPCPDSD

B1: A2 (antibody, V domains shown)
VH: QMQLVQSGAEVKMPGSSVRISCKASGGSFTTHFINWVRQAPGQGLEWMGWMNPNTGNTGYAERFQGRVTLTRDTSISTAYLELSSLRSDDTAVYYCARNPAESGRFDPWGQGTLVTVSS
VL: QSALTQPPSASGSPGRSVTISCTGTSNNVGGYNYVSWYQQHPGKAPKLMIYEVTKRPSGVPDRFSGSKSGNTASLTVSGLQAEDEADYYCGTWDGSLNAYVFGTGTKVTVL
B2: F3 (antibody, V domains shown)
VH: QMQLVQSGAEVKKPGASVTVSCKASGYTFTNSYIHWVRQAPGQGLEWVGRLIPSSGYTIFSQKLQGRVSMTRDTSMSTHYLTLSHLRPEDTAVYYCATDGGNYNLDFWGQGTLVTVSS
VL: QPVLTQPPSVSGSPGQSVTISCTGTSSDVGGYNYVSWYQQHPGKAPKLMIYDVSSRPSGVSNRFSGSKSDNTASLTISGLQAEDEADYYCSSYTSSSPYVFGTGTKVTVL
B3: D5 (antibody, V domains shown)
VH: QVQLQQSGPGLVKPSQTLSLTCAISGDSVSSNSAAWNWIRQSPSRGLEWLGRTYYRSKWYNDYAVSVKSRITINPDTSKNQFSLQLNSVTPEDTAVYYCAMHSGYRNYGMDVWGQGTTVTVSS
VL: QSVVTQPPSVSGAPGQRVTISCTGSSSNIGAGYDVHWYQQLPGTAPKLLIYGNSNRPSGVPDRFSGSKSGTSASLAITGLQAEDEADYYCQSYDSSLSGAVVFGGGTKLTVL
B4: B6 (antibody, V domains shown)
VH: QVQLVQSGAEVKKPGATVKVSCTASGFPFRNYAMHWVRQAPGQRLEWLGWIDAGNGNTKYSQTFHGRVTITRDTSASTAYMELSSLRSEDTAVYYCARDLLWPYLVTSGGAFDIWGQGTMVTVSS
VL: SYELMQPPSTSGTPGQRVTISCSGSSSNIGSHIVNWYQQFPGAAPQLLIYNDDQRPSGVPDRFSGSKSGASASLAISGLQSEDEAHYYCSAWDDILKGPVFGGGTKLTVL
B5: A7 (antibody, V domains shown)
VH: QMQLVQSGAEVKKPGASVKVSCKASGGTFSSYAISWVRQAPGQGLEWMGGIIPIFGTANYAQKFQGRVTITADESTSTAYMELSSLRSEDTAVYYCAREIGSYSSGWYRAFDIWGQGTMVTVSS
VL: DIVMTQSPSTLSASVGDRVTITCRASQSISSWLAWYQQKPGKAPQLLIYKASNLQSGVPSRFSGSGSVTEFSLTISSLLPEDFATYYCQQYSRPPWTFGQGTKVEIK
B6: A12 (antibody, V domains shown)
VH: QVQLVESGGGLVQPGGSLRLSCAASGFTFSNYAMNWVRQTPGKGLEWVSVNYNDGFGTFNGYYADSVKGRFIISRDNSKNTLYLQMNSLRVDDTAVYYCARDSGVAGPYYFDNWGQGTLVTVSS
VL: AIQLTQSPSTLSASVGDRVTITCRASQSISSWLAWYQQKPGKAPKLLIYKASSLESGVPSRFSGSGSGTEFTLTISSLQPDDFATYYCQQYNSSPLTFGGGTKLEIK
B7: F6 (antibody, V domains shown)
VH: EVQLVESGGGFVKPGRSLRLSCTASGFTFGDYGMSWFRQAPGKGLEWVGFIRSKAYGGTTDYAASVKGRFTISRDDSKSFAYLQMNSLKTEDTAVYYCTRGHYSASIWGQGTLVTVSS
VL: SYELMQPPSVSVAPGKTARITCGGNNIGSKSVHWYQQRPDQAPVLVIYSDNDRPSGIPERFSGSSSGHTATLTISRVEAGDEADYFCQVWDSNKNEWVFGGGTKLTVL
B8: G5 (antibody, V domains shown)
VH: QVQLQQSGPGLVKPSQTLSLTCAISGDSVSSNSAAWNWIRQSPSRGLEWLGRTYYRSKWYNDYAVSVKSRITINPDTSKNQFSLQLNSVTPEDTAVYYCARDRWELPFDYWGQGTTVTVSS
VL: QSVVTQPPSVSAASGQKVIISCSGSNSNIVNNYVSWYQQLPGAAPKVLIYANNKRPSGIPDRFSGSKSGTSAFLAITGLQTGDEADYYCGTWDGSLDVDVFGGGTKLTVL
B9: G3 (antibody, V domains shown)
VH: QVQLVQSGAEVKKPGASVKVSCKASGYTFTSYYMHWVRQAPGQGLEWMGIINPSGGSTSYAQKFQGRVTMTRDTSTSTVYMELSGLRSEDTAVYYCARYEHDYDSSKATTGYFDYWGQGTLVTVSS
VL: AIQLTQSPDSLAVSLGERATINCKSSQSILYRSNNKNYLAWYQQKPGQPPKLLIYWASTRESGVPDRFSGSGSGTDFTLTISSLQPEDFATYYCQQADRFPITFGQGTRLEIK
B10: F5 (antibody, V domains shown)
VH: EVQLVQSGTEVKKPGSSVKVSCKASGGSFSNYAISWVRQAPGQGLEWMGRIIPILGIANYAQKFQGRVTITADKSTSTAYMELSSLGSEDTAVYYCARESGSYLDPWGQGTLVTVSS
VL: DIVMTQSPDSLAVSLGERATINCKSSQSVLYSPNNKNYLTWYQQKPGQPPKLLMYWASTRESGVPDRFSASGSGTDFTLTISSLQAEDVAVYYCQQSRSGPYTFGQGTKVEIK
B11: C2 (antibody, V domains shown)
VH: QVQLVQSGAEVKKPGASVKVSCKASGYTFTTHYIHWVRQAPGQGLEWMAIINPNDGVKVYAQKFKGRLTVASDTSATTVYMDLSGLTSDDTAVYYCGREQHGGHHDYWGQGTLVTVSS
VL: QAGLTQPASVSGSPGQSITISCTGTSSDVGGYNYVSWYQQHPGKAPKLMIYDVTNRPSGVSNRFSGSKSGNTASLTISGLQAEDEADYYCKSYTSSSTPYVFGTGTKVTVL
B12: G12 (antibody, V domains shown)
VH: EVQLVESGAEVKKPGASVKVSCKASGYTFTSYGISWVRQAPGQGLEWMGWISAYNGNTNYAQKLQGRVTMTTDTSTSTAYMELRSLRSDDTAVYYCARGPGILTGYYFDYWGQGTLVTVSS
VL: EIVMTQSPSSLSASVGDRVTITCRASQGINYHLAWYQQKPGKAPKLLIYAASALQSGVPSRFSGTGSGTEFTLTISSLQPEDFATYYCQQFNTYPLTFGGGTKLEIK
B13: G2 (antibody, V domains shown)
VH: QVQLVESGGGLIQPGGSLRLSCAASGFTVSSAYMSWVRQAPGKGLEWVSVIYRGGTTYYADSVKGRFTISRDNSKNTLYLQMNSLRAEDTAVYYCRGEGGNSGDYFDYWGQGTTVTVSS
VL: NFMLTQPASVSGSPGQSITISCTGTSSDVGGYNFVSWYQQHPGKAPKLMIYDVSKRPSGVSNRFSGSKSGNTASLTISGLQAEDEADYYCSSYTSTNTLDVLFGGGTKLTVL
B14: G1 (antibody, V domains shown)
VH: QVQLVQSGAEVKKPGASVKVSCKTSGNTFTNYYMHWVRQAPGQGLEWMGIMNPSGGSTSYAQKFQGRVTMTRDKSTSTVYMELSSLTSEDTAVYYCARDLFPHIYGNYYGMDIWGQGTTVTVSS
VL: QSVVTQPPSVSAAPGQNVTISCSGSSSNIGNNYVSWYQQLPGTAPKLLIYDNNRRASGIPDRFSGSKSGTSATLGITGLQTGDEADYYCGTWDRSLTTDWVFGGGTKLTVL
B15: A4 (antibody, V domains shown)
VH: QVQLVESGGGLIQPGGSLRLSCAASGFSVSNNYMNWVRQAPGKGLEWVSVIYRGGSTYYADSVKGRFTISRDNSKNTLYLQMNSLRTEDTAVYYCLREGGTSGDYVNDWGQGTLVTVSS
VL: QSVVTQPPSVSGAPGQRVTISCTGSSSNIGAGYDVHWYQQLPGTAPKLLIYGNKNRPSGVPDRFSGSKSGTSASLAITGLQAEDEADYYCQAYDSSLSVVFGGGTKLTVL

This test deals with T1, human CTLA4. The test is described as follows: selection of human antibodies; method not described.
Regarding B1, the binding result was “binds”.

As for B2, the binding result was “binds”.

Take B3: the binding result is “binds”.

As for B4, the binding result is listed as “binds”.

Turning to B5, the binding result is “binds”.

For the molecule B6, the binding result is “binds”.

In the case of B7, the binding result was “binds”.

Turning to B8, the binding result is “binds”.

Turning to B9, the binding result is given as “binds”.

On to B10, for which the binding result is “binds”.

B11: the binding result was “binds”.

Take B12: the binding result was “binds”.

Turning to B13, the binding result is “binds”.

For B14, the binding result is listed as “binds”.

With B15, the binding result is on record as “binds”.

The record behind these values is US20160237154A1 (SORRENTO THERAPEUTICS, published 2016).
